# Patent US20230406885A1, “CYCLIC PEPTIDES FOR TRAPPING INTERLEUKIN-1 BETA” (MERCK SHARP & DOHME LLC, priority 2022, published 2023)
# *1 amine or outer side, *2 acyl side, *3 side chain or, on linkers, in order; H or OH if unused. Primed or numbered codes have the meaning given here. [ ]: non-standard residue; d: D form. TyrEtNAc = L-tyrosine O-ethyl acetamide, (S)-3-(4-(2-acetamidoethoxy)phenyl)-2-aminopropanoic acid, CC(=O)NCCOc1ccc(C[C@H](N[*:1])C(=O)[*:2])cc1; AEF′ = (S)-2-amino-3-(6-(2-aminoethoxy)pyridin-3-yl)propanoic acid, O=C([C@H](Cc1ccc(OCCN[*:3])nc1)N[*:1])[*:2]; AbuMph = (S)-2-amino-4-morpholinobutanoic acid, O=C([C@H](CCN1CCOCC1)N[*:1])[*:2]; Ala(piperidin-4-yl) = O=C([C@H](CC1CCN([*:3])CC1)N[*:1])[*:2]; Pro(trans-4-NH2) = O=C([C@@H]1C[C@@H](N[*:3])CN1[*:1])[*:2]; Trp(βS-Me,4-F) = C[C@@H](c1c[nH]c2cccc(F)c12)[C@H](N)C(=O)O; Bip(4'-COOH) = N[C@@H](Cc1ccc(-c2ccc(C(=O)O)cc2)cc1)C(=O)O; Phe(4-COOH) = N[C@@H](Cc1ccc(C(=O)O)cc1)C(=O)O; h3Pal(5-CN) = N#Cc1cncc(CC[C@H](N)C(=O)O)c1; hTyr = N[C@@H](CCc1ccc(O)cc1)C(=O)O; hPhe = N[C@@H](CCc1ccccc1)C(=O)O; 4Pal = N[C@@H](Cc1ccncc1)C(=O)O; dDab = NCC[C@@H](N)C(=O)O; dNMeA = CN[C@H](C)C(=O)O; Dab = NCC[C@H](N)C(=O)O; Nva = CCC[C@H](N)C(=O)O
# B1: SEQ ID NO: 167 (Example No. 167) (peptide)
# peptide: cyclo([TyrEtNAc]W[Phe(4-COOH)]G[Pro(trans-4-NH2)][Trp(βS-Me,4-F)]D[dNMeA]G[Bip(4'-COOH)]WL[dA][hTyr])
# SMILES: CC(=O)NCCOc1ccc(C[C@@H]2NC(=O)[C@H](CCc3ccc(O)cc3)NC(=O)[C@@H](C)NC(=O)[C@H](CC(C)C)NC(=O)[C@H](Cc3c[nH]c4ccccc34)NC(=O)[C@H](Cc3ccc(-c4ccc(C(=O)O)cc4)cc3)NC(=O)CNC(=O)[C@@H](C)N(C)C(=O)[C@H](CC(=O)O)NC(=O)[C@H]([C@@H](C)c3c[nH]c4cccc(F)c34)NC(=O)[C@@H]3C[C@@H](N)CN3C(=O)CNC(=O)[C@H](Cc3ccc(C(=O)O)cc3)NC(=O)[C@H](Cc3c[nH]c4ccccc34)NC2=O)cc1
# B2: SEQ ID NO: 159 (Example No. 159) (peptide)
# peptide: cyclo([TyrEtNAc]W[Phe(4-COOH)]G[Pro(trans-4-NH2)][Trp(βS-Me,4-F)]D[dNMeA]G[Bip(4'-COOH)]KL[dA][hTyr])
# SMILES: CC(=O)NCCOc1ccc(C[C@@H]2NC(=O)[C@H](CCc3ccc(O)cc3)NC(=O)[C@@H](C)NC(=O)[C@H](CC(C)C)NC(=O)[C@H](CCCCN)NC(=O)[C@H](Cc3ccc(-c4ccc(C(=O)O)cc4)cc3)NC(=O)CNC(=O)[C@@H](C)N(C)C(=O)[C@H](CC(=O)O)NC(=O)[C@H]([C@@H](C)c3c[nH]c4cccc(F)c34)NC(=O)[C@@H]3C[C@@H](N)CN3C(=O)CNC(=O)[C@H](Cc3ccc(C(=O)O)cc3)NC(=O)[C@H](Cc3c[nH]c4ccccc34)NC2=O)cc1
# B3: SEQ ID NO: 156 (Example No. 156) (peptide)
# peptide: cyclo([TyrEtNAc]W[Phe(4-COOH)]G[Pro(trans-4-NH2)][Trp(βS-Me,4-F)]D[dNMeA]G[Bip(4'-COOH)][4Pal]L[dA][hTyr])
# SMILES: CC(=O)NCCOc1ccc(C[C@@H]2NC(=O)[C@H](CCc3ccc(O)cc3)NC(=O)[C@@H](C)NC(=O)[C@H](CC(C)C)NC(=O)[C@H](Cc3ccncc3)NC(=O)[C@H](Cc3ccc(-c4ccc(C(=O)O)cc4)cc3)NC(=O)CNC(=O)[C@@H](C)N(C)C(=O)[C@H](CC(=O)O)NC(=O)[C@H]([C@@H](C)c3c[nH]c4cccc(F)c34)NC(=O)[C@@H]3C[C@@H](N)CN3C(=O)CNC(=O)[C@H](Cc3ccc(C(=O)O)cc3)NC(=O)[C@H](Cc3c[nH]c4ccccc34)NC2=O)cc1
# B4: SEQ ID NO: 157 (Example No. 157) (peptide)
# peptide: cyclo([TyrEtNAc]W[Phe(4-COOH)]G[Pro(trans-4-NH2)][Trp(βS-Me,4-F)]D[dNMeA]G[Bip(4'-COOH)][4Pal][Nva][dA][hTyr])
# SMILES: CCC[C@@H]1NC(=O)[C@H](Cc2ccncc2)NC(=O)[C@H](Cc2ccc(-c3ccc(C(=O)O)cc3)cc2)NC(=O)CNC(=O)[C@@H](C)N(C)C(=O)[C@H](CC(=O)O)NC(=O)[C@H]([C@@H](C)c2c[nH]c3cccc(F)c23)NC(=O)[C@@H]2C[C@@H](N)CN2C(=O)CNC(=O)[C@H](Cc2ccc(C(=O)O)cc2)NC(=O)[C@H](Cc2c[nH]c3ccccc23)NC(=O)[C@H](Cc2ccc(OCCNC(C)=O)cc2)NC(=O)[C@H](CCc2ccc(O)cc2)NC(=O)[C@@H](C)NC1=O
# B5: SEQ ID NO: 166 (Example No. 166) (peptide)
# peptide: cyclo([TyrEtNAc]W[Phe(4-COOH)]G[Pro(trans-4-NH2)][Trp(βS-Me,4-F)]D[dNMeA]G[Bip(4'-COOH)]WL[dA][hPhe])
# SMILES: CC(=O)NCCOc1ccc(C[C@@H]2NC(=O)[C@H](CCc3ccccc3)NC(=O)[C@@H](C)NC(=O)[C@H](CC(C)C)NC(=O)[C@H](Cc3c[nH]c4ccccc34)NC(=O)[C@H](Cc3ccc(-c4ccc(C(=O)O)cc4)cc3)NC(=O)CNC(=O)[C@@H](C)N(C)C(=O)[C@H](CC(=O)O)NC(=O)[C@H]([C@@H](C)c3c[nH]c4cccc(F)c34)NC(=O)[C@@H]3C[C@@H](N)CN3C(=O)CNC(=O)[C@H](Cc3ccc(C(=O)O)cc3)NC(=O)[C@H](Cc3c[nH]c4ccccc34)NC2=O)cc1
# B6: SEQ ID NO: 165 (Example No. 165) (peptide)
# peptide: cyclo([TyrEtNAc]W[Phe(4-COOH)]G[Pro(trans-4-NH2)][Trp(βS-Me,4-F)]D[dNMeA]G[Bip(4'-COOH)]WL[dA][Ala(piperidin-4-yl)])
# SMILES: CC(=O)NCCOc1ccc(C[C@@H]2NC(=O)[C@H](CC3CCNCC3)NC(=O)[C@@H](C)NC(=O)[C@H](CC(C)C)NC(=O)[C@H](Cc3c[nH]c4ccccc34)NC(=O)[C@H](Cc3ccc(-c4ccc(C(=O)O)cc4)cc3)NC(=O)CNC(=O)[C@@H](C)N(C)C(=O)[C@H](CC(=O)O)NC(=O)[C@H]([C@@H](C)c3c[nH]c4cccc(F)c34)NC(=O)[C@@H]3C[C@@H](N)CN3C(=O)CNC(=O)[C@H](Cc3ccc(C(=O)O)cc3)NC(=O)[C@H](Cc3c[nH]c4ccccc34)NC2=O)cc1
# B7: SEQ ID NO: 158 (Example No. 158) (peptide)
# peptide: cyclo([TyrEtNAc]W[Phe(4-COOH)]G[Pro(trans-4-NH2)][Trp(βS-Me,4-F)]D[dNMeA]G[Bip(4'-COOH)]KL[dA][h3Pal(5-CN)])
# SMILES: CC(=O)NCCOc1ccc(C[C@@H]2NC(=O)[C@H](CCc3cncc(C#N)c3)NC(=O)[C@@H](C)NC(=O)[C@H](CC(C)C)NC(=O)[C@H](CCCCN)NC(=O)[C@H](Cc3ccc(-c4ccc(C(=O)O)cc4)cc3)NC(=O)CNC(=O)[C@@H](C)N(C)C(=O)[C@H](CC(=O)O)NC(=O)[C@H]([C@@H](C)c3c[nH]c4cccc(F)c34)NC(=O)[C@@H]3C[C@@H](N)CN3C(=O)CNC(=O)[C@H](Cc3ccc(C(=O)O)cc3)NC(=O)[C@H](Cc3c[nH]c4ccccc34)NC2=O)cc1
# B8: SEQ ID NO: 161 (Example No. 161) (peptide)
# peptide: cyclo([TyrEtNAc]W[Phe(4-COOH)]G[Pro(trans-4-NH2)][Trp(βS-Me,4-F)]D[dNMeA]G[Bip(4'-COOH)]KL[dS][hTyr])
# SMILES: CC(=O)NCCOc1ccc(C[C@@H]2NC(=O)[C@H](CCc3ccc(O)cc3)NC(=O)[C@@H](CO)NC(=O)[C@H](CC(C)C)NC(=O)[C@H](CCCCN)NC(=O)[C@H](Cc3ccc(-c4ccc(C(=O)O)cc4)cc3)NC(=O)CNC(=O)[C@@H](C)N(C)C(=O)[C@H](CC(=O)O)NC(=O)[C@H]([C@@H](C)c3c[nH]c4cccc(F)c34)NC(=O)[C@@H]3C[C@@H](N)CN3C(=O)CNC(=O)[C@H](Cc3ccc(C(=O)O)cc3)NC(=O)[C@H](Cc3c[nH]c4ccccc34)NC2=O)cc1
# B9: SEQ ID NO: 162 (Example No. 162) (peptide)
# peptide: cyclo([TyrEtNAc]W[Phe(4-COOH)]G[Pro(trans-4-NH2)][Trp(βS-Me,4-F)]D[dNMeA]G[Bip(4'-COOH)]W[AbuMph][dA]G)
# SMILES: CC(=O)NCCOc1ccc(C[C@@H]2NC(=O)CNC(=O)[C@@H](C)NC(=O)[C@H](CCN3CCOCC3)NC(=O)[C@H](Cc3c[nH]c4ccccc34)NC(=O)[C@H](Cc3ccc(-c4ccc(C(=O)O)cc4)cc3)NC(=O)CNC(=O)[C@@H](C)N(C)C(=O)[C@H](CC(=O)O)NC(=O)[C@H]([C@@H](C)c3c[nH]c4cccc(F)c34)NC(=O)[C@@H]3C[C@@H](N)CN3C(=O)CNC(=O)[C@H](Cc3ccc(C(=O)O)cc3)NC(=O)[C@H](Cc3c[nH]c4ccccc34)NC2=O)cc1
# B10: SEQ ID NO: 168 (Example No. 168) (peptide)
# peptide: cyclo([TyrEtNAc]W[Phe(4-COOH)]G[Pro(trans-4-NH2)][Trp(βS-Me,4-F)]D[dNMeA]G[Bip(4'-COOH)]WL[dDab][hTyr])
# SMILES: CC(=O)NCCOc1ccc(C[C@@H]2NC(=O)[C@H](CCc3ccc(O)cc3)NC(=O)[C@@H](CCN)NC(=O)[C@H](CC(C)C)NC(=O)[C@H](Cc3c[nH]c4ccccc34)NC(=O)[C@H](Cc3ccc(-c4ccc(C(=O)O)cc4)cc3)NC(=O)CNC(=O)[C@@H](C)N(C)C(=O)[C@H](CC(=O)O)NC(=O)[C@H]([C@@H](C)c3c[nH]c4cccc(F)c34)NC(=O)[C@@H]3C[C@@H](N)CN3C(=O)CNC(=O)[C@H](Cc3ccc(C(=O)O)cc3)NC(=O)[C@H](Cc3c[nH]c4ccccc34)NC2=O)cc1
# B11: SEQ ID NO: 160 (Example No. 160) (peptide)
# peptide: cyclo([TyrEtNAc]W[Phe(4-COOH)]G[Pro(trans-4-NH2)][Trp(βS-Me,4-F)]D[dNMeA]G[Bip(4'-COOH)]KL[dDab][hTyr])
# SMILES: CC(=O)NCCOc1ccc(C[C@@H]2NC(=O)[C@H](CCc3ccc(O)cc3)NC(=O)[C@@H](CCN)NC(=O)[C@H](CC(C)C)NC(=O)[C@H](CCCCN)NC(=O)[C@H](Cc3ccc(-c4ccc(C(=O)O)cc4)cc3)NC(=O)CNC(=O)[C@@H](C)N(C)C(=O)[C@H](CC(=O)O)NC(=O)[C@H]([C@@H](C)c3c[nH]c4cccc(F)c34)NC(=O)[C@@H]3C[C@@H](N)CN3C(=O)CNC(=O)[C@H](Cc3ccc(C(=O)O)cc3)NC(=O)[C@H](Cc3c[nH]c4ccccc34)NC2=O)cc1
# B12: SEQ ID NO: 163 (Example No. 163) (peptide)
# peptide: cyclo([TyrEtNAc]W[Phe(4-COOH)]G[Pro(trans-4-NH2)][Trp(βS-Me,4-F)]D[dNMeA]G[Bip(4'-COOH)]W[Dab][dA][hPhe])
# SMILES: CC(=O)NCCOc1ccc(C[C@@H]2NC(=O)[C@H](CCc3ccccc3)NC(=O)[C@@H](C)NC(=O)[C@H](CCN)NC(=O)[C@H](Cc3c[nH]c4ccccc34)NC(=O)[C@H](Cc3ccc(-c4ccc(C(=O)O)cc4)cc3)NC(=O)CNC(=O)[C@@H](C)N(C)C(=O)[C@H](CC(=O)O)NC(=O)[C@H]([C@@H](C)c3c[nH]c4cccc(F)c34)NC(=O)[C@@H]3C[C@@H](N)CN3C(=O)CNC(=O)[C@H](Cc3ccc(C(=O)O)cc3)NC(=O)[C@H](Cc3c[nH]c4ccccc34)NC2=O)cc1
# Target: Recombinant human IL-1β (BioLegend 579404) (human, UniProt P01584 117-269)
# Assay: cell-based or functional assay
row,Binder,MRC5 IC50
1,B1,0.136 nM
2,B2,0.118 nM
3,B3,0.948 nM
4,B4,0.403 nM
5,B5,0.149 nM
6,B6,0.781 nM
7,"cyclo([TyrEtNAc]W[Phe(4-COOH)]G[Pro(trans-4-NH2)][Trp(βS-Me,4-F)]D[dNMeA]G[Bip(4'-COOH)]WL[dA][AEF′]) [SEQ ID NO: 164 (Example No. 164)]",0.459 nM
8,B7,0.0257 nM
9,B8,0.483 nM
10,B9,0.749 nM
11,B10,0.0847 nM
12,B11,0.522 nM
13,B12,0.156 nM
